Reference: patent publication US20110287512

What was measured:
[1] = system: ZFP7264 (host, center linker TGSQKP) (artificial)
[2] = system: ZFP7264 linker 1e (artificial)
[3] = system: ZFP7264 linker LRQKDERP (artificial)
[4] = system: ZFP7264 linker TGEGGKP (artificial)
[5] = system: ZFP7264 linker TGGGGSQKP (artificial)
[6] = system: ZFP7264 linker TGLPKPKP (artificial)
[7] = system: ZFP7264 linker TKHGTPKHREDKP (artificial)
[8] = system: ZFP7264 linker TLPLPRPKP (artificial)
[9] = system: ZFP7264 linker TLPPCFRPKP (artificial)
[10] = system: ZFP7264 linker TSRPRPKP (artificial)
[11] = system: ZFP8196 (host, center linker TGEKP) (artificial); assay: ELONA; conditions: ELISA normalized to host on 0-bp gap target (reference)
[12] = system: ZFP8196 linker 1c center linker F2-F3 TGEKP replaced by THPRAPIPKP (artificial); assay: ELONA; conditions: normalized ELISA score
[13] = system: ZFP8196 linker 1d center linker F2-F3 TGEKP replaced by TPNRRPAPKP (artificial); assay: ELONA; conditions: normalized ELISA score
[14] = system: ZFP8196 linker 1f center linker F2-F3 TGEKP replaced by TYPRPIAAKP (artificial); assay: ELONA; conditions: normalized ELISA score
[15] = system: ZFP8196 linker 2d center linker F2-F3 TGEKP replaced by TLAPRPYRPPKP (artificial); assay: ELONA; conditions: normalized ELISA score
[16] = system: ZFP8196 linker 2e center linker F2-F3 TGEKP replaced by TPGGKSSRTDRNKP (artificial); assay: ELONA; conditions: normalized ELISA score
[17] = system: ZFP8196 linker 2f center linker F2-F3 TGEKP replaced by TPNPHRRTDPSHKP (artificial); assay: ELONA; conditions: normalized ELISA score
[18] = system: ZFP8196 linker LRQKDERP center linker F2-F3 TGEKP replaced by LRQKDERP (artificial); assay: ELONA; conditions: normalized ELISA score
[19] = system: ZFP8196 linker LRQKDGGGSERP (Kim, Pabo) center linker F2-F3 TGEKP replaced by LRQKDGGGSERP (artificial); assay: ELONA; conditions: normalized ELISA score
[20] = system: ZFP8196 linker TASCPRPFRPPKP center linker F2-F3 TGEKP replaced by TASCPRPFRPPKP (artificial); assay: ELONA; conditions: normalized ELISA score
[21] = system: ZFP8196 linker TCPRPPTRKP center linker F2-F3 TGEKP replaced by TCPRPPTRKP (artificial); assay: ELONA; conditions: normalized ELISA score
[22] = system: ZFP8196 linker TEPRAKPPKP center linker F2-F3 TGEKP replaced by TEPRAKPPKP (artificial); assay: ELONA; conditions: normalized ELISA score
[23] = system: ZFP8196 linker TETTRPFRPPKP center linker F2-F3 TGEKP replaced by TETTRPFRPPKP (artificial); assay: ELONA; conditions: normalized ELISA score
[24] = system: ZFP8196 linker TGEARPYRPPKP center linker F2-F3 TGEKP replaced by TGEARPYRPPKP (artificial); assay: ELONA; conditions: normalized ELISA score
[25] = system: ZFP8196 linker TGEGGKP center linker F2-F3 TGEKP replaced by TGEGGKP (artificial); assay: ELONA; conditions: normalized ELISA score
[26] = system: ZFP8196 linker TGGGGSGGSQKP (flexible) center linker F2-F3 TGEKP replaced by TGGGGSGGSQKP (artificial); assay: ELONA; conditions: normalized ELISA score
[27] = system: ZFP8196 linker TGGGGSQKP center linker F2-F3 TGEKP replaced by TGGGGSQKP (artificial); assay: ELONA; conditions: normalized ELISA score
[28] = system: ZFP8196 linker TGSLRPYRRPKP center linker F2-F3 TGEKP replaced by TGSLRPYRRPKP (artificial); assay: ELONA; conditions: normalized ELISA score
[29] = system: ZFP8196 linker TGYSIPRPKP center linker F2-F3 TGEKP replaced by TGYSIPRPKP (artificial); assay: ELONA; conditions: normalized ELISA score
[30] = system: ZFP8196 linker TNTTRPYRPPKP center linker F2-F3 TGEKP replaced by TNTTRPYRPPKP (artificial); assay: ELONA; conditions: normalized ELISA score
[31] = system: ZFP8196 linker TPDAPKPKP center linker F2-F3 TGEKP replaced by TPDAPKPKP (artificial); assay: ELONA; conditions: normalized ELISA score
[32] = system: ZFP8196 linker TPDRPISTCKP center linker F2-F3 TGEKP replaced by TPDRPISTCKP (artificial); assay: ELONA; conditions: normalized ELISA score
[33] = system: ZFP8196 linker TPGLHRPKP center linker F2-F3 TGEKP replaced by TPGLHRPKP (artificial); assay: ELONA; conditions: normalized ELISA score
[34] = system: ZFP8196 linker TPSHTPRPKP center linker F2-F3 TGEKP replaced by TPSHTPRPKP (artificial); assay: ELONA; conditions: normalized ELISA score
[35] = system: ZFP8196 linker TSINRPFRRPKP center linker F2-F3 TGEKP replaced by TSINRPFRRPKP (artificial); assay: ELONA; conditions: normalized ELISA score
[36] = system: ZFP8196 linker TSPRLPAPKP center linker F2-F3 TGEKP replaced by TSPRLPAPKP (artificial); assay: ELONA; conditions: normalized ELISA score
[37] = system: ZFP8196 linker TSSPRSNAKP center linker F2-F3 TGEKP replaced by TSSPRSNAKP (artificial); assay: ELONA; conditions: normalized ELISA score
[38] = system: ZFP8196 linker TVSPAPCRSKP center linker F2-F3 TGEKP replaced by TVSPAPCRSKP (artificial); assay: ELONA; conditions: normalized ELISA score
[39] = system: ZFP8196 (host, center linker TGEKP) (artificial)
[40] = system: ZFP8196 linker 1c (artificial)
[41] = system: ZFP8196 linker 1d (artificial)
[42] = system: ZFP8196 linker 1f (artificial)
[43] = system: ZFP8196 linker LRQKDERP (artificial)
[44] = system: ZFP8196 linker TCPRPPTRKP (artificial)
[45] = system: ZFP8196 linker TEPRAKPPKP (artificial)
[46] = system: ZFP8196 linker TGEGGKP (artificial)
[47] = system: ZFP8196 linker TGGGGSQKP (artificial)
[48] = system: ZFP8196 linker TGYSIPRPKP (artificial)
[49] = system: ZFP8196 linker TPDAPKPKP (artificial)
[50] = system: ZFP8196 linker TPDRPISTCKP (artificial)
[51] = system: ZFP8196 linker TPGLHRPKP (artificial)
[52] = system: ZFP8196 linker TPSHTPRPKP (artificial)
[53] = system: ZFP8196 linker TSPRLPAPKP (artificial)
[54] = system: ZFP8196 linker TSSPRSNAKP (artificial)
[55] = system: ZFP8196 linker TVSPAPCRSKP (artificial)
[56] = system: ZFN7264 (host) (artificial); assay: cell_activity; conditions: yeast, paired with 7263 ZFN
[57] = system: ZFN7264 linker 1e center linker F2-F3 TGSQKP replaced by TVPRPTPPKP (artificial); assay: cell_activity; conditions: normalized yeast MEL-1 score, with invariant 7263 ZFN partner
[58] = system: ZFN7264 linker TGGGGSQKP (artificial); assay: cell_activity; conditions: yeast, paired with 7263 ZFN
[59] = system: ZFN7264 linker TGLPKPKP (artificial); assay: cell_activity; conditions: yeast, paired with 7263 ZFN
[60] = system: ZFN7264 linker TSRPRPKP (artificial); assay: cell_activity; conditions: yeast, paired with 7263 ZFN

In the case of “TTAGTTAAAGCGCTGCTCCGAATATC (double strand) [7264 target gap CT]”, the binding signal (normalized ELISA) [1] was 0, the binding signal (normalized ELISA) [2] was 0.06 and the binding signal (normalized ELISA) [3] was 0.02. The binding signal (normalized ELISA) [4] was 0.03, the binding signal (normalized ELISA) [5] was 0.07 and the binding signal (normalized ELISA) [6] was 0.02. The binding signal (normalized ELISA) [7] was 0, the binding signal (normalized ELISA) [8] was 0.03 and the binding signal (normalized ELISA) [9] was 0.05. It also gave a binding signal (normalized ELISA) [10] of 0.03.

Sequence “TTAGATAAACTGCAAAAGGCTATC (double strand) [8196 target 0-bp gap]” has a binding signal [11] of 1, a binding signal [12] of 0 and a binding signal [13] of 0. It also gave a binding signal [14] of 0.01, a binding signal [15] of 0.005 and a binding signal [16] of 0.005. For the same sequence, the binding signal [17] was 0.003, the binding signal [18] was 0.01 and the binding signal [19] was 0.01. The binding signal [20] was 0.01, the binding signal [21] was 0 and the binding signal [22] was 0.01. For the same sequence, the binding signal [23] was 0.001, the binding signal [24] was 0.001 and the binding signal [25] was 0.1. It also gave a binding signal [26] of 0.019, a binding signal [27] of 0 and a binding signal [28] of 0.001. It also gave a binding signal [29] of 0.01, a binding signal [30] of 0.001 and a binding signal [31] of 0.02. For the same sequence, the binding signal [32] was 0.01, the binding signal [33] was 0.04 and the binding signal [34] was 0.02. It also gave a binding signal [35] of 0.01, a binding signal [36] of 0.01 and a binding signal [37] of 0.01. It also gave a binding signal [38] of 0.01.

With “TTAGATAAACTGACCAAAAGGCTATC (double strand) [8196 target gap AC]” the binding signal (normalized ELISA) [39] was 0, the binding signal (normalized ELISA) [40] was 0 and the binding signal (normalized ELISA) [41] was 0.01. The binding signal (normalized ELISA) [42] was 0, the binding signal (normalized ELISA) [43] was 0 and the binding signal (normalized ELISA) [44] was 0. The binding signal (normalized ELISA) [45] was 0.01, the binding signal (normalized ELISA) [46] was 0 and the binding signal (normalized ELISA) [47] was 0. The binding signal (normalized ELISA) [48] was 0, the binding signal (normalized ELISA) [49] was 0 and the binding signal (normalized ELISA) [50] was 0.01. For the same sequence, the binding signal (normalized ELISA) [51] was 0, the binding signal (normalized ELISA) [52] was 0.01 and the binding signal (normalized ELISA) [53] was 0. It also gave a binding signal (normalized ELISA) [54] of 0 and a binding signal (normalized ELISA) [55] of 0.

With “TTAGTTAAAGCGTAGCTCCGAATATC (double strand) [7264 target gap TA]” the binding signal (normalized ELISA) [1] was 0, the binding signal (normalized ELISA) [2] was 0.05 and the binding signal (normalized ELISA) [3] was 0.02. It also gave a binding signal (normalized ELISA) [4] of 0.02, a binding signal (normalized ELISA) [5] of 0.03 and a binding signal (normalized ELISA) [6] of 0.02. It also gave a binding signal (normalized ELISA) [7] of 0, a binding signal (normalized ELISA) [8] of 0.03 and a binding signal (normalized ELISA) [9] of 0.06. For the same sequence, the binding signal (normalized ELISA) [10] was 0.03.

“AAAGCGGCTCCG (double strand) [7264 yeast half-site 0-bp gap]” was tested, and the activity (normalized MEL-1) [56] was 1, the activity [57] was 0.08 and the activity (normalized MEL-1) [58] was 0.28. For the same sequence, the activity (normalized MEL-1) [59] was 0.04 and the activity (normalized MEL-1) [60] was 0.08.
